Measurements from the supplement of paper PMC10065799, “High-throughput profiling of sequence recognition by tyrosine kinases and SH2 domains using bacterial peptide display” (eLife, 2023).

Target: EPHB2 (UniProt P29323)
Test: phosphorylation enrichment, bacterial display (enrichment ratio); higher = better substrate or ligand; peptides without Tyr show the background
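Note: 11-residue human phosphosite peptides and single-mutation variants displayed on the E. coli surface, counted by deep sequencing, each peptide's frequency after selection divided by its frequency in the unselected input library; frequency after pTyr selection over input frequency; kinase dosed for 20-30% of maximal phosphorylation in three min.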

EPHB2, sequence (P29323 whole entry, looked up): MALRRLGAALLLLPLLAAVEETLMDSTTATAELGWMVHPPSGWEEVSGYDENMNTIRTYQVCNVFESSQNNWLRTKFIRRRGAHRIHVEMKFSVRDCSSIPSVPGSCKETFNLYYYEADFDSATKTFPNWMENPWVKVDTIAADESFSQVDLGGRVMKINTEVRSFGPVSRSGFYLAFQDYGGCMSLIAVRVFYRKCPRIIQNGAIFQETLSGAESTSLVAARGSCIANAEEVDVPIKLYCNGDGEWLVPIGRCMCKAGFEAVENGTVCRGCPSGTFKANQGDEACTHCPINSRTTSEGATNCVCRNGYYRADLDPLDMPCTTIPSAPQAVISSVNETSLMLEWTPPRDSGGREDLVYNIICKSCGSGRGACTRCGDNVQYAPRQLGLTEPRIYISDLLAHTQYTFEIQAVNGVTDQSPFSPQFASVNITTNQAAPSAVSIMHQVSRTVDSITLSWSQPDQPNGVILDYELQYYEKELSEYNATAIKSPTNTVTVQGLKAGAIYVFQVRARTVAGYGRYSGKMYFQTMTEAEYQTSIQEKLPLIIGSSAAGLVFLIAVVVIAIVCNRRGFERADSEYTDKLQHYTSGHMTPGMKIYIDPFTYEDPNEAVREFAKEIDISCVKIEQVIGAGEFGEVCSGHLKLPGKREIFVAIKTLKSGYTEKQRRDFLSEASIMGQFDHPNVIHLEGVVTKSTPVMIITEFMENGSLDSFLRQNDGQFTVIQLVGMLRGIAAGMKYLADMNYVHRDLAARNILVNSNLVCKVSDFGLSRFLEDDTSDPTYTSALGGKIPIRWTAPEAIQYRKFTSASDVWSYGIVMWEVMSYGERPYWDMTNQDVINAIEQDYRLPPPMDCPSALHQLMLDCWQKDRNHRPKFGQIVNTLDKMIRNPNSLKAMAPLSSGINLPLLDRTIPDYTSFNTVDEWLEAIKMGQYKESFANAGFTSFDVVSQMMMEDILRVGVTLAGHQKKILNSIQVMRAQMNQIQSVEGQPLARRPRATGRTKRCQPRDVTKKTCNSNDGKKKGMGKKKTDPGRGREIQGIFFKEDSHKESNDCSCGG

Sequence | phosphorylation enrichment
ELANLYHHVCM [BICD2_Y538] | 0.708
GVRFTYTIDGS [DCX_Y105_I104T_YF] | 0.67
EQLRAYLEGTC [HLA-C_Y183] | 0.591
SLMNQYVNKEF [RAB7A_Y28_K32E] | 0.554
KGSEGYLAAIF [NF1_Y2503_T2507I_YF] | 0.411
DLSEVYKPRRK [CCDC93_Y176] | 0.454
GIYKDYYRYNF [PLA2G2D_Y85_S80G] | 5.13
KDFETYQSFQN [CTNND2_Y1157_P1159S_YF] | 1.17
RRNEEYCLLAS [ITK_Y198_D202A] | 0.72
PVGVLYKVKVY [PTS_Y128] | 0.877
KGEDFYCVTFH [FHL1_Y149_C153Y_YF] | 0.891
RRIHSYRGRLW [VHL_Y112_H115R] | 0.641
FGLQAYTEVKT [ALDH2_Y502_YF] | 0.609
PELINYHQHFS [BTK_Y361_N365Y_YF] | 0.44
LREKVYVSLEA [RXRA_Y397_A398V] | 0.501
ADKSVYLMGLN [MYH7_Y386_A385V] | 0.409
SLNEVYTKNKT [MSH2_Y563_E562V] | 0.411

Sequence | phosphorylation enrichment
DGTESYHTVSS [PLK1_Y462_L463H] | 0.514
PTTKTYFPHFF [HBA1_Y43_D48Y_YF] | 0.716
LKALHYMVQTS [SACS_Y3367] | 0.512
TIQIMYGCDVG [HLA-A_Y123] | 0.664
GKSFIYAAFHA [KCNT1_Y563_T562I] | 0.522
GSSSSCGQHGS [HRNR_Y517_Y517C] | 0.311
RRIHSYRGQLW [VHL_Y112_H115Q] | 0.438
KSVVTYSPTTG [ITGB3BP_Y32_I30V] | 0.416
KILGRYFETSS [PAX2_Y72_G76S_YF] | 0.406
DTDSSYCIPIA [GAB1_Y373_T377I] | 0.721
CKRQFYLFKGK [RSPO4_Y112_YF] | 0.546
ESDYTYSSSYE [SRPK2_Y427] | 1.45
DRQASYLDKVR [KRT16_Y131_L128Q] | 0.419
CGPLLYGLVHQ [PRKCG_Y122_S119P] | 4.12
PNQRRYVFFFS [PTEN_Y174_S170N_YF] | 0.639
GHEFIYVDRMQ [PDGFRB_Y581_P584R_YF] | 0.685

System: AncSZ
Test: as above

Sequence | phosphorylation enrichment
ELANLYHHVCM [BICD2_Y538] | 1.17
GVRFTYTIDGS [DCX_Y105_I104T_YF] | 1.26
EQLRAYLEGTC [HLA-C_Y183] | 1.02
SLMNQYVNKEF [RAB7A_Y28_K32E] | 0.58
KGSEGYLAAIF [NF1_Y2503_T2507I_YF] | 0.683
DLSEVYKPRRK [CCDC93_Y176] | 0.761
GIYKDYYRYNF [PLA2G2D_Y85_S80G] | 1.4
KDFETYQSFQN [CTNND2_Y1157_P1159S_YF] | 0.958
RRNEEYCLLAS [ITK_Y198_D202A] | 0.976
PVGVLYKVKVY [PTS_Y128] | 1.28
KGEDFYCVTFH [FHL1_Y149_C153Y_YF] | 1.48
RRIHSYRGRLW [VHL_Y112_H115R] | 0.956
FGLQAYTEVKT [ALDH2_Y502_YF] | 1.03
PELINYHQHFS [BTK_Y361_N365Y_YF] | 0.508
LREKVYVSLEA [RXRA_Y397_A398V] | 0.64
ADKSVYLMGLN [MYH7_Y386_A385V] | 0.666
SLNEVYTKNKT [MSH2_Y563_E562V] | 0.641

Sequence | phosphorylation enrichment
DGTESYHTVSS [PLK1_Y462_L463H] | 0.569
PTTKTYFPHFF [HBA1_Y43_D48Y_YF] | 0.681
LKALHYMVQTS [SACS_Y3367] | 0.808
TIQIMYGCDVG [HLA-A_Y123] | 1.37
GKSFIYAAFHA [KCNT1_Y563_T562I] | 1.18
GSSSSCGQHGS [HRNR_Y517_Y517C] | 0.556
RRIHSYRGQLW [VHL_Y112_H115Q] | 1.25
KSVVTYSPTTG [ITGB3BP_Y32_I30V] | 0.478
KILGRYFETSS [PAX2_Y72_G76S_YF] | 0.648
DTDSSYCIPIA [GAB1_Y373_T377I] | 2.21
CKRQFYLFKGK [RSPO4_Y112_YF] | 0.863
ESDYTYSSSYE [SRPK2_Y427] | 2.42
DRQASYLDKVR [KRT16_Y131_L128Q] | 0.536
CGPLLYGLVHQ [PRKCG_Y122_S119P] | 0.884
PNQRRYVFFFS [PTEN_Y174_S170N_YF] | 1.89
GHEFIYVDRMQ [PDGFRB_Y581_P584R_YF] | 0.777

System: Fer (mouse)
Test: as above

Sequence | phosphorylation enrichment
ELANLYHHVCM [BICD2_Y538] | 1.77
GVRFTYTIDGS [DCX_Y105_I104T_YF] | 0.384
EQLRAYLEGTC [HLA-C_Y183] | 0.558
SLMNQYVNKEF [RAB7A_Y28_K32E] | 0.385
KGSEGYLAAIF [NF1_Y2503_T2507I_YF] | 0.432
DLSEVYKPRRK [CCDC93_Y176] | 0.521
GIYKDYYRYNF [PLA2G2D_Y85_S80G] | 0.938
KDFETYQSFQN [CTNND2_Y1157_P1159S_YF] | 0.493
RRNEEYCLLAS [ITK_Y198_D202A] | 0.594
PVGVLYKVKVY [PTS_Y128] | 0.699
KGEDFYCVTFH [FHL1_Y149_C153Y_YF] | 1.54
RRIHSYRGRLW [VHL_Y112_H115R] | 0.637
FGLQAYTEVKT [ALDH2_Y502_YF] | 0.608
PELINYHQHFS [BTK_Y361_N365Y_YF] | 0.366
LREKVYVSLEA [RXRA_Y397_A398V] | 0.44
ADKSVYLMGLN [MYH7_Y386_A385V] | 0.413
SLNEVYTKNKT [MSH2_Y563_E562V] | 0.328

Sequence | phosphorylation enrichment
DGTESYHTVSS [PLK1_Y462_L463H] | 0.348
PTTKTYFPHFF [HBA1_Y43_D48Y_YF] | 0.864
LKALHYMVQTS [SACS_Y3367] | 0.428
TIQIMYGCDVG [HLA-A_Y123] | 0.597
GKSFIYAAFHA [KCNT1_Y563_T562I] | 0.672
GSSSSCGQHGS [HRNR_Y517_Y517C] | 0.38
RRIHSYRGQLW [VHL_Y112_H115Q] | 0.617
KSVVTYSPTTG [ITGB3BP_Y32_I30V] | 0.369
KILGRYFETSS [PAX2_Y72_G76S_YF] | 0.432
DTDSSYCIPIA [GAB1_Y373_T377I] | 0.483
CKRQFYLFKGK [RSPO4_Y112_YF] | 0.403
ESDYTYSSSYE [SRPK2_Y427] | 0.68
DRQASYLDKVR [KRT16_Y131_L128Q] | 0.324
CGPLLYGLVHQ [PRKCG_Y122_S119P] | 8.22
PNQRRYVFFFS [PTEN_Y174_S170N_YF] | 0.76
GHEFIYVDRMQ [PDGFRB_Y581_P584R_YF] | 0.382

Target: FGFR1 (UniProt P11362)
Sequence (P11362 whole entry, looked up): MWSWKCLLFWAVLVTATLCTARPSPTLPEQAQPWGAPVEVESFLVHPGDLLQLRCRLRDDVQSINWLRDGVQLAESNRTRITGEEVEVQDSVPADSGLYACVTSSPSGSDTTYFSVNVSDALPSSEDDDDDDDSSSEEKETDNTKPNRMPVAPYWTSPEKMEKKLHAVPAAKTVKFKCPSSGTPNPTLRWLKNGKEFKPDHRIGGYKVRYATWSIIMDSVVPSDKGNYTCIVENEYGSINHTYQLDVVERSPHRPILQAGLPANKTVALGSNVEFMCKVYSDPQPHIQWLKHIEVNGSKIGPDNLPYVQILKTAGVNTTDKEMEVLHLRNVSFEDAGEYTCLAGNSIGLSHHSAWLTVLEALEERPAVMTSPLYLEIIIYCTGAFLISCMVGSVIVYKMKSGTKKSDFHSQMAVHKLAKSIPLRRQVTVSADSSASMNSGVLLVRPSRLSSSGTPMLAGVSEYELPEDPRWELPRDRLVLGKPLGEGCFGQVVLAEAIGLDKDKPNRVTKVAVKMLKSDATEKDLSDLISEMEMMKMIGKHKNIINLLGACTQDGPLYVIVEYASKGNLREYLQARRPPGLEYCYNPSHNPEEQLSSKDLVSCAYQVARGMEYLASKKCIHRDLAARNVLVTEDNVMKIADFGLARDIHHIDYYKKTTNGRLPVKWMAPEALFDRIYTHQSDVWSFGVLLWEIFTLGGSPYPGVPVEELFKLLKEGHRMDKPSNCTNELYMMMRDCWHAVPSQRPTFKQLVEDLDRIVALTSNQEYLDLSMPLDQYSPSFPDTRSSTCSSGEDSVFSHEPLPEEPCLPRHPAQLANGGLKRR
Test: as above

Sequence | phosphorylation enrichment
ELANLYHHVCM [BICD2_Y538] | 1.57
GVRFTYTIDGS [DCX_Y105_I104T_YF] | 0.601
EQLRAYLEGTC [HLA-C_Y183] | 0.843
SLMNQYVNKEF [RAB7A_Y28_K32E] | 0.373
KGSEGYLAAIF [NF1_Y2503_T2507I_YF] | 0.433
DLSEVYKPRRK [CCDC93_Y176] | 0.352
GIYKDYYRYNF [PLA2G2D_Y85_S80G] | 12.2
KDFETYQSFQN [CTNND2_Y1157_P1159S_YF] | 0.5
RRNEEYCLLAS [ITK_Y198_D202A] | 0.888
PVGVLYKVKVY [PTS_Y128] | 0.337
KGEDFYCVTFH [FHL1_Y149_C153Y_YF] | 0.952
RRIHSYRGRLW [VHL_Y112_H115R] | 0.733
FGLQAYTEVKT [ALDH2_Y502_YF] | 0.584
PELINYHQHFS [BTK_Y361_N365Y_YF] | 0.591
LREKVYVSLEA [RXRA_Y397_A398V] | 0.837
ADKSVYLMGLN [MYH7_Y386_A385V] | 0.444
SLNEVYTKNKT [MSH2_Y563_E562V] | 0.446

Sequence | phosphorylation enrichment
DGTESYHTVSS [PLK1_Y462_L463H] | 0.558
PTTKTYFPHFF [HBA1_Y43_D48Y_YF] | 0.824
LKALHYMVQTS [SACS_Y3367] | 0.39
TIQIMYGCDVG [HLA-A_Y123] | 0.476
GKSFIYAAFHA [KCNT1_Y563_T562I] | 0.452
GSSSSCGQHGS [HRNR_Y517_Y517C] | 0.363
RRIHSYRGQLW [VHL_Y112_H115Q] | 0.536
KSVVTYSPTTG [ITGB3BP_Y32_I30V] | 0.375
KILGRYFETSS [PAX2_Y72_G76S_YF] | 0.469
DTDSSYCIPIA [GAB1_Y373_T377I] | 0.586
CKRQFYLFKGK [RSPO4_Y112_YF] | 0.446
ESDYTYSSSYE [SRPK2_Y427] | 1.12
DRQASYLDKVR [KRT16_Y131_L128Q] | 0.39
CGPLLYGLVHQ [PRKCG_Y122_S119P] | 0.593
PNQRRYVFFFS [PTEN_Y174_S170N_YF] | 0.731
GHEFIYVDRMQ [PDGFRB_Y581_P584R_YF] | 0.555
